# Reference: paper PMC11100828
# Target: human Nup153^CTD (C-terminal domain, aa 896-1485), MBP and SNAP-tag fusion protein (human)
# Assay: negative-stain TEM, occupancy of NuPODs by capsids
substance,measurement,value
HBV capsids assembled in vitro from wild type HBV core protein (HBc) (from UniProt P03146 1-183) (complex),percent of NuPODs occupied by at least one capsid,90%
